Where two headings read alike, the source gives them in different places.
How the values were obtained:
[1] = Ex vivo biodistribution in CA20948 xenograft mice; conditions: mouse, iv
Protocol: Quantification of activity was performed with an automated gamma counter equipped with a 3-in NaI(Tl) detector coupled to a multichannel analyzer (2480 Wizard^2, Perkin Elmer, Zaventem, Belgium). The results were corrected for background signal, physical decay during counting and detector dead time.
Male NMRI nude mice (between 8 and 15 weeks old) were anesthetized with 2.5% isoflurane in O2 at a flow rate of 0.2 L min^−1 and subcutaneously injected on the right shoulder with 1 × 10^6 CA20948 cells resuspended in PBS with 30% matrigel®. Tumor dimensions were measured two or three times per week and volume was calculated as length × width × height. Mice were sacrificed if the tumor volume exceeded 600 mm^3 or if more than 10% of the original body weight was lost.
Additionally, similar biodistribution studies were performed with free (unlabeled) [^153Sm]SmCl3 to identify the organs with ^153Sm accumulation in case of release from the complex. […] The mice were sacrificed by an overdose pentobarbital (200 µL of 60 mg/mL) 1, 4, 24 and 72 h post-injection (p.i.) (n = 3–4 per time point). Blood was collected via cardiac puncture. Organs of interest were collected in tared tubes and weighed. The activity in the different organs was measured in the gamma counter. For the calculation of the total activity in the blood, bone and muscle, the masses were assumed to be, respectively, 7, 12 and 40% of the total body mass. Data were expressed as a percentage of injected activity (%IA) and standardized uptake value (SUV). %IA was calculated as (counts per min (cpm) in organ)/(IA converted to cpm) × 100. SUV was calculated as (activity in cpm in organ/weight of organ in g)/(IA/total body weight in g).

[2] = target: T1, SSTR2 receptors (Rattus norvegicus, UniProt P30680); assay: Cell binding assay (membrane association and internalization); type: cell-based; conditions: for decrease of binding by co-incubation with unlabeled DOTA-TATE: 1 h
T1 construct: CA20948 cells are derived from rat pancreas and express SSTR2 endogenously; endogenous in cells; host or cells: CA20948 rat pancreatic cancer cells
Protocol: Rat pancreatic cancer cell line CA20948 was used given the somatostatin receptor 2 (SSTR2) overexpression as it is found in many human neuroendocrine tumors. Cells were grown in DMEM High Glucose and Pyruvate medium (Gibco 41966029) supplemented with 10% fetal bovine serum (Gibco 10270106) and 100 U/mL penicillin-streptomycin (Sigma-Aldrich P4333) and were maintained in a humidified incubator at 37 °C with 5% CO2 supply. All in vitro results were obtained from a minimum of three replicates per condition.
Hereafter, fractions were collected. First, the membrane-bound fraction was collected following 10 min incubation at room temperature in strip buffer (50 mM glycine, 100 mM NaCl, pH 2.8). Then, the internalized fraction was collected by 30 min of cell lysis (1 M NaOH) at room temperature. […] In addition, total cell number per well was obtained using a MOXI™ automated cell counter (VWR, Leuven, Belgium).

[3] = Stability test in PBS (iTLC); type: physicochemical; conditions: 37 °C, up to 7 days, ~5 MBq in 250 µL added to 4.75 mL, iTLC-SG, 0.5 M citrate pH 5.5, gamma counter
Protocol: Radiolabeling was performed by adding up to 200 MBq of the ^153Sm radiolabeling solution to 20 nmol of the DOTA-TATE precursor dissolved in 0.15 M NaOAc buffer (pH 4.7) in a total reaction volume of 1 mL. The reaction vial was placed in a Thermomixer C (Eppendorf) to stir (500 rpm) and the mixture was heated to 95 °C for 15 min. After incubation, the radiolabeling yield was evaluated using thin-layer chromatography. An amount of 1–2 µL of the reaction mixture was spotted on a glass microfiber chromatography paper strip impregnated with silica gel (iTLC-SG, Agilent Technologies, Diegem, Belgium) that was eluted with a 0.5 M citrate solution (pH 5.5). After elution, the TLC papers were cut in half and the activity of the bottom and top part of the TLC paper was counted for 2 min each using an automated gamma counter.
After 1 h, 3 days, 5 days and 7 days, a 5 µL sample was spotted on the TLC system described above to identify the intact fraction.

[4] = male, NMRI nude, bone, total radioactivity, read-out: Bone SUV
[5] = male, NMRI nude, in vivo, total radioactivity, read-out: Excreted %IA
[6] = male, NMRI nude, intestines, total radioactivity, read-out: Intestines %IA
[7] = male, NMRI nude, kidneys, total radioactivity, read-out: Kidneys %IA
[8] = male, NMRI nude, liver, total radioactivity, read-out: Liver %IA
[9] = male, NMRI nude, muscle, total radioactivity, read-out: Muscle %IA
[10] = male, NMRI nude, pancreas, total radioactivity, read-out: Pancreas %IA
[11] = male, NMRI nude, pancreas, total radioactivity, read-out: Pancreas SUV
[12] = male, NMRI nude, spleen, total radioactivity, read-out: Spleen SUV
[13] = male, NMRI nude, stomach, total radioactivity, read-out: Stomach %IA
[14] = male, NMRI nude, tumor, total radioactivity, read-out: Tumor %IA

T1 sequence (P30680 whole entry): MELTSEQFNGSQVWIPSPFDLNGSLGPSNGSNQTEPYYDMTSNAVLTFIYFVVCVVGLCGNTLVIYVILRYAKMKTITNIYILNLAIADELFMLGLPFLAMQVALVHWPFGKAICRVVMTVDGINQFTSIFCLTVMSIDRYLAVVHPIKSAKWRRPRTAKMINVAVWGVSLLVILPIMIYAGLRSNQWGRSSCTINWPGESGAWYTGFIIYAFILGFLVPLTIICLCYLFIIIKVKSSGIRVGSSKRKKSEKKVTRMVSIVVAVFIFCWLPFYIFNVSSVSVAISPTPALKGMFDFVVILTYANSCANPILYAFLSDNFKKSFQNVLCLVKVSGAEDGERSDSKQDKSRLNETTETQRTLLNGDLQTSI

## C[C@@H](O)[C@H](NC(=O)[C@@H]1CSSC[C@H](NC(=O)[C@@H](Cc2ccccc2)NC(=O)CN2CCN(CC(=O)O)CCN(CC(=O)O)CCN(CC(=O)O)CC2)C(=O)N[C@@H](Cc2ccc(O)cc2)C(=O)N[C@H](Cc2c[nH]c3ccccc23)C(=O)N[C@@H](CCCCN)C(=O)N[C@@H]([C@@H](C)O)C(=O)N1)C(=O)O [[^153Sm]Sm-DOTA-TATE, metal not drawn]
[1]; male, NMRI nude, blood, total radioactivity, read-out: Blood SUV
  SUV at 1 h: 0.1 SUV
[1]; male, NMRI nude, bone, total radioactivity, read-out: Bone %IA
  tissue uptake dose at 4 h: 0.5 ± 0.1 %ID
[1]; [4]
  SUV at 1 h: 0.1 SUV
  SUV at 4 h: 0.1 SUV
[1]; [5]
  tissue uptake dose at 1 h: 80 ± 4.4 %ID
  tissue uptake dose at 4 h: 83 ± 3.5 %ID
  tissue uptake dose at 24 h: 94.1 ± 3.6 %ID
  tissue uptake dose at 72 h: 96.6 ± 1.7 %ID
[1]; [6]
  tissue uptake dose at 4 h: 4.4 ± 1.5 %ID
  tissue uptake dose at 72 h: 0.1 %ID
[1]; male, NMRI nude, kidneys, total radioactivity
  SUV at 72 h: 0.1 SUV
[1]; [7]
  tissue uptake dose at 4 h: 2.4 ± 0.6 %ID
  tissue uptake dose at 72 h: 0.1 %ID
[1]; male, NMRI nude, kidneys, total radioactivity, read-out: Kidneys SUV
  SUV at 24 h: 0.3 ± 0.1 SUV
[1]; [8]
  tissue uptake dose at 1 h: 0.4 ± 0.1 %ID
  tissue uptake dose at 24 h: 0.1 %ID
[1]; male, NMRI nude, liver, total radioactivity, read-out: Liver SUV
  SUV at 1 h: 0.1 SUV
[1]; male, NMRI nude, lungs, total radioactivity, read-out: Lungs %IA
  tissue uptake dose at 1 h: 0.1 %ID
[1]; male, NMRI nude, lungs, total radioactivity, read-out: Lungs SUV
  SUV at 1 h: 0.1 SUV
[1]; [9]
  tissue uptake dose at 1 h: 1 ± 0.4 %ID
  tissue uptake dose at 24 h: 0.1 %ID
[1]; male, NMRI nude, muscle, total radioactivity, read-out: Muscle SUV
  SUV at 4 h: 0.1 SUV
[1]; [10]
  tissue uptake dose at 1 h: 1 ± 0.1 %ID
  tissue uptake dose at 4 h: 0.4 ± 0.3 %ID
  tissue uptake dose at 24 h: 0.1 %ID
[1]; [11]
  SUV at 4 h: 0.6 ± 0.4 SUV
  SUV at 24 h: 0.1 SUV
[1]; [12]
  SUV at 1 h: 0.1 SUV
  SUV at 4 h: 0.1 SUV
[1]; [13]
  tissue uptake dose at 1 h: 0.7 ± 0.1 %ID
  tissue uptake dose at 4 h: 1 ± 0.3 %ID
  tissue uptake dose at 72 h: 0.1 %ID
[1]; [14]
  tissue uptake dose at 4 h: 6.1 ± 3.7 %ID
  tissue uptake dose at 24 h: 3.2 ± 2.9 %ID
  tissue uptake dose at 72 h: 2.2 ± 1.6 %ID
[1]; male, NMRI nude, tumor, total radioactivity, read-out: Tumor SUV
  SUV at 4 h: 4.4 ± 1.1 SUV
[1]; male, NMRI nude, whole blood, total radioactivity, read-out: Blood %IA
  tissue uptake dose at 4 h: 0.1 %ID
[1]; bone, total radioactivity, 24 h p.i., CA20948 tumor bearing male NMRI-nude mice, ~2-3 MBq i.v., mean ± SD, n = 3-4, read-out: Bone %IA
  tissue uptake dose at 24 h: 0.2 ± 0.1 %ID
[1]; bone, total radioactivity, 72 h p.i., CA20948 tumor bearing male NMRI-nude mice, ~2-3 MBq i.v., mean ± SD, n = 3-4, read-out: Bone %IA
  tissue uptake dose at 72 h: 0.2 %ID
[1]; in vivo
  Blood %IA: 0.0 ± 0.0 %IA
  Blood SUV: 0.0 ± 0.0
  Bone %IA: 0.4 ± 0.0 %IA
  Bone SUV: 0.0 ± 0.0
  Brain %IA: 0.0 ± 0.0 %IA
  Brain SUV: 0.0 ± 0.0
  Heart %IA: 0.0 ± 0.0 %IA
  Heart SUV: 0.0 ± 0.0
  Liver SUV: 0.0 ± 0.0
  Lungs %IA: 0.0 ± 0.0 %IA
  Lungs SUV: 0.0 ± 0.0
  Muscle %IA: 0.0 ± 0.0 %IA
  Muscle SUV: 0.0 ± 0.0
  Pancreas %IA: 0.0 ± 0.0 %IA
  Pancreas SUV: 0.0 ± 0.0
  Spleen %IA: 0.0 ± 0.0 %IA
  Spleen SUV: 0.0 ± 0.0
[1]; intestines, total radioactivity, 1 h p.i., CA20948 tumor bearing male NMRI-nude mice, ~2-3 MBq i.v., mean ± SD, n = 3-4, read-out: Intestines %IA
  tissue uptake dose at 1 h: 2 ± 0.3 %ID
[1]; intestines, total radioactivity, 24 h p.i., CA20948 tumor bearing male NMRI-nude mice, ~2-3 MBq i.v., mean ± SD, n = 3-4, read-out: Intestines %IA
  tissue uptake dose at 24 h: 0.6 ± 0.2 %ID
[1]; total radioactivity, 1 h p.i., CA20948 tumor bearing male NMRI-nude mice, ~2-3 MBq i.v., mean ± SD, n = 3-4, read-out: Tumor %IA
  tissue uptake dose at 1 h: 3.7 ± 2 %ID
[1]; kidneys, total radioactivity, 24 h p.i., CA20948 tumor bearing male NMRI-nude mice, ~2-3 MBq i.v., mean ± SD, n = 3-4, read-out: Kidneys %IA
  tissue uptake dose at 24 h: 0.5 ± 0.2 %ID
[1]; liver, total radioactivity, 4 h p.i., CA20948 tumor bearing male NMRI-nude mice, ~2-3 MBq i.v., mean ± SD, n = 3-4, read-out: Liver %IA
  tissue uptake dose at 4 h: 0.2 %ID
[1]; liver, total radioactivity, 72 h p.i., CA20948 tumor bearing male NMRI-nude mice, ~2-3 MBq i.v., mean ± SD, n = 3-4, read-out: Liver %IA
  tissue uptake dose at 72 h: 0.2 %ID
[1]; muscle, total radioactivity, 1 h p.i., CA20948 tumor bearing male NMRI-nude mice, ~2-3 MBq i.v., mean ± SD, n = 3-4, read-out: Muscle SUV
  SUV at 1 h: 0.2 ± 0.1 SUV
[1]; muscle, total radioactivity, 4 h p.i., CA20948 tumor bearing male NMRI-nude mice, ~2-3 MBq i.v., mean ± SD, n = 3-4, read-out: Muscle %IA
  tissue uptake dose at 4 h: 0.4 ± 0.2 %ID
[1]; pancreas, total radioactivity, 1 h p.i., CA20948 tumor bearing male NMRI-nude mice, ~2-3 MBq i.v., mean ± SD, n = 3-4, read-out: Pancreas SUV
  SUV at 1 h: 1.2 ± 0.2 SUV
[1]; stomach, total radioactivity, 24 h p.i., CA20948 tumor bearing male NMRI-nude mice, ~2-3 MBq i.v., mean ± SD, n = 3-4, read-out: Stomach %IA
  tissue uptake dose at 24 h: 0.3 ± 0.2 %ID
[1]; whole blood, total radioactivity, 1 h p.i., CA20948 tumor bearing male NMRI-nude mice, ~2-3 MBq i.v., mean ± SD, n = 3-4, read-out: Blood %IA
  tissue uptake dose at 1 h: 0.7 ± 0.2 %ID
[2]; 2.5 nM (2.7 kBq), 1 h incubation, mean ± SD
  internalized fraction of cell-associated activity: 79 ± 2%
[2]; 4-fold molar excess of unlabeled DOTA-TATE
  decrease of binding by co-incubation with unlabeled DOTA-TATE: about 40%
[2]; 4000-fold molar excess of unlabeled DOTA-TATE
  decrease of binding by co-incubation with unlabeled DOTA-TATE: ~92%
[3]
  radiochemical purity (intact fraction): > 99%
other
  time without leaching of 153Sm from the chelator: > 7 days
